B1: Proline-serine-threonine phosphatase-interacting protein 1 (Homo sapiens), O43586 (parent)
chain: MMPQLQFKDAFWCRDFTAHTGYEVLLQRLLDGRKMCKDMEELLRQRAQAEERYGKELVQIARKAGGQTEINSLRASFDSLKQQMENVGSSHIQLALTLREELRSLEEFRERQKEQRKKYEAVMDRVQKSKLSLYKKAMESKKTYEQKCRDADDAEQAFERISANGHQKQVEKSQNKARQCKDSATEAERVYRQSIAQLEKVRAEWEQEHRTTCEAFQLQEFDRLTILRNALWVHSNQLSMQCVKDDELYEEVRLTLEGCSIDADIDSFIQAKSTGTEPPAPVPYQNYYDREVTPLTSSPGIQPSCGMIKRFSGLLHGSPKTTSLAASAASTETLTPTPERNEGVYTAIAVQEIQGNPASPAQEYRALYDYTAQNPDELDLSAGDILEVILEGEDGWWTVERNGQRGFVPGSYLEKL
partner: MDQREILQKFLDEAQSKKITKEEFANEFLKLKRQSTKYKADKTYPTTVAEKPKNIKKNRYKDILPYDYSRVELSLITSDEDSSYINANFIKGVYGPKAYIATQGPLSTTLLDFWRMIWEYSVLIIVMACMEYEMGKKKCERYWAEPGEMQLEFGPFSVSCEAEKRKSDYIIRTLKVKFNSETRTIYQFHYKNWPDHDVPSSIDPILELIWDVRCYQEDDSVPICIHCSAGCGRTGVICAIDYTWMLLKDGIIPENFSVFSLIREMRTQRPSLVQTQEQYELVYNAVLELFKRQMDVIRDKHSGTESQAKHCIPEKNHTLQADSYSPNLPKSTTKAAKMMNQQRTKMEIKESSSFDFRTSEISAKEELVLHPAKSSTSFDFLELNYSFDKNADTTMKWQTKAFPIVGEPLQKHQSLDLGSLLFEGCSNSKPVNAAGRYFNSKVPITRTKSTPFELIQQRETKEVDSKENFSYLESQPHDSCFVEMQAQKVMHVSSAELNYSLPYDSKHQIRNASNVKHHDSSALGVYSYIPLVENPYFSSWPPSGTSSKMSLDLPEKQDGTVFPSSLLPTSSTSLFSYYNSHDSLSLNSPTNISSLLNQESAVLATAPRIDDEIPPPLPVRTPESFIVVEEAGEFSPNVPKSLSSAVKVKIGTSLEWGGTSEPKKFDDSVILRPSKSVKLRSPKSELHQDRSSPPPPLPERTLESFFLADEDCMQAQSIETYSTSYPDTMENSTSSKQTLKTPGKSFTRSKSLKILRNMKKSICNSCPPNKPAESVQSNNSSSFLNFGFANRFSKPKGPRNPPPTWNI

In the first assay the parent is B1. The settings on record: with ptn22_human PTPN22, Q9Y2R2.
Regarding W232A, the “effect of a mutation on the interaction” value was “disrupting interaction”.

Variants of B1 are the subject of a further assay. The conditions noted are these: with ptn22_human PTPN22, Q9Y2R2. This is another data set of the same source.
As for E250Q, the “effect of a mutation on the interaction” value is given as “disrupting interaction”.

The values above are taken from IntAct's records for PubMed 25040622.
